Source: paper PMC7954794, “Protein context shapes the specificity of SH3 domain-mediated interactions in vivo” (Nature Communications, 2021)

System: growth of yeast strains under 51 stress conditions
Assay: Growth assays in 51 stress conditions (Fig. 1E-F, S2D, S5B)
Assay type: cell-based, Saccharomyces cerevisiae
Parameters: key to Growth (Fig. S2D) / growth of ABP1 SH3-swapped strains in stress condition: log2 colony size, average of median per strain (growth score)
Settings: ABP1 SH3-swapped strains
Description: All WT, SH3-deleted, KO (except for CDC25 which is the only essential SH3-containing gene in yeast), ABP1 SH3-swapped, and SLA1 SH3-shuffled strains were grown on omnitrays in 1536 formats and robotically manipulated with a pin tool (the DHFR F[1,2] bait strains were used except for the KO strains). Each strain was randomly positioned in 6 replicates per plate and two plates per condition were performed, for 12 replicates per strain in total. A border of two rows and two columns of WT strains (BY4741) around the plate was used to remove border effects. Strains were grown on YPD media for two days at 30 °C. They were then replicated on 51 different media that are described in the Supplementary Table 3 and were incubated at 37 °C in a spImager custom platform with images acquired every two hours for four days. The colony sizes from plate pictures were also measured with the R package “Gitter” and the output was manually inspected. Positions with an abnormality in colony circularity were removed. The colony sizes after 74 h of incubation at 37 °C were log2 transformed and used for the analyses. First, the differences between the two plate replicates were corrected to remove plate effects. The median colony size was calculated for each strain per plate. Strains with a difference in their median colony size of more than two between the two plate replicates were removed. Finally, the average of the median colony size was calculated for each strain per condition (growth score).

B1: HOF1 (protein, UniProt Q05080 1-669, looked up)
Cytokinesis protein 2: MSYSYEACFWDPNDNGVNILLGHISQGIRSCDSMILFFKQRSELEKDYARRLGAITGKLDKDIGTNMDYGKLNETFNVVLSVEKARAQSHSKQSEILFRQIYTDTKAFAANLQARYTTLSGKIERLRMDKFNKKKGCEVLQKKLQDAQIRFRDLQLNENNMIGAKRVEHNKRELLKWESNSQEYKVQLDVLKQEYKASQKFWIHEWAQLSCELQEMENARISFLQSKLQQFATSSMETYILEQTKMDMLTNHLNSFTAADEISTFSKENGTGRLKHKTSKGDMNSSANWAQMSSISTTSKKTESYMDNIRKLSSQLKETENKRKLASIDKYEKPLPSPEVTMATQFRNSTPVIRNETKVVANPTLSLRSSPVQLQSNVDDSVLRQKPDKPRPIVGEEQLKPDEDSKNPDEKGLMVHKRNQSLSSPSESSSSNPTDFSHIKKRQSMESMTTSVSSMANSIDDSQRFAKSWNSSNRKRKSMSHLQVPSSASSRSDDGGRTPNSAHNLNEDDYNTRRDTSTSTILFKPPVAVRGTSRGHTHRQSMIMQDSSNPIEDALYEMERIQSSSKPGTKTGNIMDERGVVRDRGITVTLPIVTSEGFPVIEYAKAMYPLIGNEAPGLANFHKGDYLLITEIVNKDWYKGEVYDNDRIDRNHRIGLIPYNFIQLLHQGL
- Growth (Fig. S2D) (Bathophenanthroline.0.1uM): 10.8727
- Growth (Fig. S2D) (Bathophenanthroline.10uM): 10.6716
- Growth (Fig. S2D) (Bathophenanthroline.1uM): 10.8166
- Growth (Fig. S2D) (CaCl2.100mM): 10.8864
- Growth (Fig. S2D) (CaCl2.250mM): 10.8461
- Growth (Fig. S2D) (CaCl2.500mM): 10.3385
- Growth (Fig. S2D) (Caffein.10mM): 10.1794
- Growth (Fig. S2D) (Caffein.2mM): 11.0235
- Growth (Fig. S2D) (CdCl2.100uM): 9.561
- Growth (Fig. S2D) (CdCl2.10uM): 10.9284
- Growth (Fig. S2D) (CdCl2.50uM): 9.924
- Growth (Fig. S2D) (CuSO4.1mM): 10.5096
- Growth (Fig. S2D) (CuSO4.5mM): 8.102
- Growth (Fig. S2D) (Cycloheximide.0.05.uM): 11.0987
- Growth (Fig. S2D) (Cycloheximide.0.2.uM): 10.6706
- Growth (Fig. S2D) (Cycloheximide.0.5.uM): 10.177
- Growth (Fig. S2D) (DMSO.2.): 11.0794
- Growth (Fig. S2D) (DMSO.6.): 9.956
- Growth (Fig. S2D) (DMSO.8.): 9.269
- Growth (Fig. S2D) (Ethanol.2.): 10.828
- Growth (Fig. S2D) (Ethanol.6.): 10.3088
- Growth (Fig. S2D) (Ethanol.8.): 10.1098
- Growth (Fig. S2D) (Galactose.2.): 10.8257
- Growth (Fig. S2D) (Glycerol.2.): 9.711
- Growth (Fig. S2D) (Hydroxyurea.25mM): 10.8274
- Growth (Fig. S2D) (Hygromycin.190uM): 11.0188
- Growth (Fig. S2D) (Hygromycin.19uM): 11.0238
- Growth (Fig. S2D) (Hygromycin.95uM): 11.0846
- Growth (Fig. S2D) (MMS.0.004.): 10.9957
- Growth (Fig. S2D) (MMS.0.02.): 10.7428
- Growth (Fig. S2D) (MMS.0.04.): 9.974
- Growth (Fig. S2D) (Menadione.100uM): 10.6873
- Growth (Fig. S2D) (Menadione.200uM): 10.4637
- Growth (Fig. S2D) (Menadione.50uM): 10.8466
- Growth (Fig. S2D) (NaCl.0.25M): 10.8422
- Growth (Fig. S2D) (NaCl.1M): 9.66
- Growth (Fig. S2D) (Nitroquinoline.10uM): 10.7373
- Growth (Fig. S2D) (Nitroquinoline.50uM): 10.5646
- Growth (Fig. S2D) (Nystatin.0.01uM): 10.9834
- Growth (Fig. S2D) (Nystatin.0.1uM): 10.9984
- Growth (Fig. S2D) (Raffinose.2.): 11.035
- Growth (Fig. S2D) (Rapamycin.10nM): 9.895
- Growth (Fig. S2D) (Rapamycin.50nM): 9.528
- Growth (Fig. S2D) (SC.pH3): 10.4278
- Growth (Fig. S2D) (SC.pH6): 10.9986
- Growth (Fig. S2D) (SDS.0.01.): 11.0079
- Growth (Fig. S2D) (SDS.0.02.): 11.0441
- Growth (Fig. S2D) (SDS.0.05.): 10.886
- Growth (Fig. S2D) (Sorbitol.10mM): 11.0139
- Growth (Fig. S2D) (Sorbitol.1mM): 11.1055
- Growth (Fig. S2D) (Sorbitol.5mM): 10.9626

B2: FUS1 (protein, UniProt P11710 1-512, looked up)
Nuclear fusion protein FUS1: MVATIMQTTTTVLTTVAAMSTTLASNYISSQASSSTSVTTVTTIATSIRSTPSNLLFSNVAAQPKSSSASTIGLSIGLPIGIFCFGLLILLCYFYLKRNSVSISNPPMSATIPREEEYCRRTNWFSRLFWQSKCEDQNSYSNRDIEKYNDTQWTSGDNMSSKIQYKISKPIIPQHILTPKKTVKNPYAWSGKNISLDPKVNEMEEEKVVDAFLYTKPPNIVHIESSMPSYNDLPSQKTVSSKKTALKTSEKWSYESPLSRWFLRGSTYFKDYGLSKTSLKTPTGAPQLKQMKMLSRISKGYFNESDIMPDERSPILEYNNTPLDANDSVNNLGNTTPDSQITSYRNNNIDLITARPHSVIYGTTAQQTLETNFNDHHDCNKSTEKHELIIPTPSKPLKKRKKRRQSKMYQHLQHLSRSKPLPLTPNSKYNGEASVQLGKTYTVIQDYEPRLTDEIRISLGEKVKILATHTDGWCLVEKCNTQKGSIHVSVDDKRYLNEDRGIVPGDCLQEYD
- Growth (Fig. S2D) (Bathophenanthroline.0.1uM): 10.7893
- Growth (Fig. S2D) (Bathophenanthroline.10uM): 10.6947
- Growth (Fig. S2D) (Bathophenanthroline.1uM): 10.778
- Growth (Fig. S2D) (CaCl2.100mM): 10.8206
- Growth (Fig. S2D) (CaCl2.250mM): 10.8008
- Growth (Fig. S2D) (CaCl2.500mM): 10.319
- Growth (Fig. S2D) (Caffein.10mM): 10.109
- Growth (Fig. S2D) (Caffein.2mM): 11.0074
- Growth (Fig. S2D) (CdCl2.100uM): 9.381
- Growth (Fig. S2D) (CdCl2.10uM): 10.9194
- Growth (Fig. S2D) (CdCl2.50uM): 9.89
- Growth (Fig. S2D) (CuSO4.1mM): 10.4955
- Growth (Fig. S2D) (CuSO4.5mM): 8.084
- Growth (Fig. S2D) (Cycloheximide.0.05.uM): 11.1072
- Growth (Fig. S2D) (Cycloheximide.0.2.uM): 10.666
- Growth (Fig. S2D) (Cycloheximide.0.5.uM): 10.227
- Growth (Fig. S2D) (DMSO.2.): 11.051
- Growth (Fig. S2D) (DMSO.6.): 9.944
- Growth (Fig. S2D) (DMSO.8.): 9.179
- Growth (Fig. S2D) (Ethanol.2.): 10.7876
- Growth (Fig. S2D) (Ethanol.6.): 10.3273
- Growth (Fig. S2D) (Ethanol.8.): 10.1194
- Growth (Fig. S2D) (Galactose.2.): 10.7919
- Growth (Fig. S2D) (Glycerol.2.): 9.646
- Growth (Fig. S2D) (Hydroxyurea.25mM): 10.8071
- Growth (Fig. S2D) (Hygromycin.190uM): 11.0027
- Growth (Fig. S2D) (Hygromycin.19uM): 11.0061
- Growth (Fig. S2D) (Hygromycin.95uM): 11.0532
- Growth (Fig. S2D) (MMS.0.004.): 10.9625
- Growth (Fig. S2D) (MMS.0.02.): 10.7139
- Growth (Fig. S2D) (MMS.0.04.): 10.0597
- Growth (Fig. S2D) (Menadione.100uM): 10.6065
- Growth (Fig. S2D) (Menadione.200uM): 10.4266
- Growth (Fig. S2D) (Menadione.50uM): 10.8061
- Growth (Fig. S2D) (NaCl.0.25M): 10.6954
- Growth (Fig. S2D) (NaCl.1M): 9.8389
- Growth (Fig. S2D) (Nitroquinoline.10uM): 10.6415
- Growth (Fig. S2D) (Nitroquinoline.50uM): 10.6237
- Growth (Fig. S2D) (Nystatin.0.01uM): 11.0226
- Growth (Fig. S2D) (Nystatin.0.1uM): 11.0679
- Growth (Fig. S2D) (Raffinose.2.): 11.0059
- Growth (Fig. S2D) (Rapamycin.10nM): 9.886
- Growth (Fig. S2D) (Rapamycin.50nM): 9.356
- Growth (Fig. S2D) (SC.pH3): 10.3927
- Growth (Fig. S2D) (SC.pH6): 11.04
- Growth (Fig. S2D) (SDS.0.01.): 10.9614
- Growth (Fig. S2D) (SDS.0.02.): 10.9777
- Growth (Fig. S2D) (SDS.0.05.): 10.8408
- Growth (Fig. S2D) (Sorbitol.10mM): 10.9835
- Growth (Fig. S2D) (Sorbitol.1mM): 11.0132
- Growth (Fig. S2D) (Sorbitol.5mM): 10.8904
